Test results taken from the supplement of paper PMC7125110.
± gives the standard error. For some assays here: Fewer inactive variants are shown than the library holds.

B1: glmS ribozyme (parent)
chain: AUAAAAGCGCCAGAACUACAGAAAUGUAGUUGACGAGGAGGAGGUUUAUCGAAUUUUCGGCGGAUGCCUCCAAA

Columns and labels:
Conditions in all cases: with glucosamine-6-phosphate
glucosamine-6-phosphate [1] = variants of: B1; experiment: kcat; higher = faster cleavage; RNA array
Summary of the method: (§1)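 Using a hybridised Cy3 probe at 37 °C, barcoded ribozyme variants transcribed in situ by E. coli RNA polymerase on sequenced MiSeq chips were monitored across tiles imaged over ~14 h. The flow contained glucosamine-6-phosphate from 40 μM to 10 mM in HEPES/KCl/Mg(OAc)2 buffer. Signals were normalised to baseline and to non-cleaving reference variants before per-tile medians were fit to one- or two-exponential decays to yield kobs. Weighted Michaelis–Menten fits across concentrations gave kcat and KM.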

glucosamine-6-phosphate [2] = variants of: B1; experiment: KM; higher = weaker cofactor use; RNA array
Summary of the method: as §1

glucosamine-6-phosphate [3] = variants of: B1; experiment: self-cleavage kobs at 160 uM GlcN6P; higher = faster cleavage; RNA array
Summary of the method: as §1

glucosamine-6-phosphate [4] = variants of: B1; experiment: self-cleavage kobs at 640 uM GlcN6P; higher = faster cleavage; RNA array
Summary of the method: as §1

glucosamine-6-phosphate [5] = variants of: B1; experiment: self-cleavage kobs at 2500 uM GlcN6P; higher = faster cleavage; RNA array
Summary of the method: as §1

glucosamine-6-phosphate [6] = variants of: B1; experiment: self-cleavage kobs at 10000 uM GlcN6P; higher = faster cleavage; RNA array
Summary of the method: as §1

glucosamine-6-phosphate [7] = variants of: B1; experiment: self-cleavage kobs at 40 uM GlcN6P; higher = faster cleavage; RNA array
Summary of the method: as §1

**Q.** How did the kcat (glucosamine-6-phosphate [1]) turn out when A12U G32A was run?
**A.** 0.000902 ± 5.6e-05 s⁻¹

**Q.** And the KM (glucosamine-6-phosphate [2])?
**A.** 2.11 ± 0.2 mM

**Q.** What about the “self-cleavage kobs at 160 uM GlcN6P” value (glucosamine-6-phosphate [3]) of the same variant?
**A.** 6.52e-05 ± 9.5e-06 s⁻¹

**Q.** And the “self-cleavage kobs at 640 uM GlcN6P” value (glucosamine-6-phosphate [4])?
**A.** 0.000203 ± 2.1e-05 s⁻¹

**Q.** What about the “self-cleavage kobs at 2500 uM GlcN6P” value (glucosamine-6-phosphate [5]) of the same variant?
**A.** 0.000498 ± 5.1e-05 s⁻¹

**Q.** What about the “self-cleavage kobs at 10000 uM GlcN6P” value (glucosamine-6-phosphate [6]) of the same variant?
**A.** 0.000735 ± 0.00013 s⁻¹

**Q.** How did the kcat (glucosamine-6-phosphate [1]) turn out when A12C U49C was run?
**A.** < 1e-05 s⁻¹

**Q.** And the “self-cleavage kobs at 10000 uM GlcN6P” value (glucosamine-6-phosphate [6])?
**A.** < 1e-05 s⁻¹

**Q.** Which kcat (glucosamine-6-phosphate [1]) does the source give for C11U U57A here?
**A.** 1.44e-05 ± 2.1e-06 s⁻¹

**Q.** What does the source list for A12C C70U C71U?
**A.** kcat (glucosamine-6-phosphate [1]): 0.000174 ± 1.1e-05 s⁻¹; KM (glucosamine-6-phosphate [2]): 1.27 ± 0.2 mM; self-cleavage kobs at 640 uM GlcN6P (glucosamine-6-phosphate [4]): 6.04e-05 ± 1.5e-05 s⁻¹; self-cleavage kobs at 10000 uM GlcN6P (glucosamine-6-phosphate [6]): 0.000154 ± 2.8e-05 s⁻¹

**Q.** A12G A53G was tested. Which kcat (glucosamine-6-phosphate [1]) did it give?
**A.** 0.0017 ± 0.00017 s⁻¹

**Q.** What about the KM (glucosamine-6-phosphate [2]) of the same variant?
**A.** 4.47 ± 0.62 mM

**Q.** And the “self-cleavage kobs at 160 uM GlcN6P” value (glucosamine-6-phosphate [3])?
**A.** 5.44e-05 ± 7.9e-06 s⁻¹

**Q.** What about the “self-cleavage kobs at 640 uM GlcN6P” value (glucosamine-6-phosphate [4]) of the same variant?
**A.** 0.000231 ± 3.1e-05 s⁻¹

**Q.** And the “self-cleavage kobs at 2500 uM GlcN6P” value (glucosamine-6-phosphate [5])?
**A.** 0.000633 ± 7e-05 s⁻¹

**Q.** What about the “self-cleavage kobs at 10000 uM GlcN6P” value (glucosamine-6-phosphate [6]) of the same variant?
**A.** 0.00114 ± 0.00015 s⁻¹

**Q.** What does the source list for A12G A53U?
**A.** kcat (glucosamine-6-phosphate [1]): 0.00085 ± 8.4e-05 s⁻¹; KM (glucosamine-6-phosphate [2]): 4.34 ± 0.62 mM; self-cleavage kobs at 160 uM GlcN6P (glucosamine-6-phosphate [3]): 2.34e-05 ± 7.6e-06 s⁻¹; self-cleavage kobs at 640 uM GlcN6P (glucosamine-6-phosphate [4]): 0.000112 ± 1e-05 s⁻¹; self-cleavage kobs at 2500 uM GlcN6P (glucosamine-6-phosphate [5]): 0.000319 ± 3e-05 s⁻¹; self-cleavage kobs at 10000 uM GlcN6P (glucosamine-6-phosphate [6]): 0.00058 ± 6.7e-05 s⁻¹

**Q.** A12C C58U was tested. Which kcat (glucosamine-6-phosphate [1]) did it give?
**A.** 0.000159 ± 1.6e-05 s⁻¹

**Q.** What about the KM (glucosamine-6-phosphate [2]) of the same variant?
**A.** 6.36 ± 1.2 mM

**Q.** What about the “self-cleavage kobs at 2500 uM GlcN6P” value (glucosamine-6-phosphate [5]) of the same variant?
**A.** 4.66e-05 ± 9.5e-06 s⁻¹

**Q.** What about the “self-cleavage kobs at 10000 uM GlcN6P” value (glucosamine-6-phosphate [6]) of the same variant?
**A.** 9.68e-05 ± 1.2e-05 s⁻¹

**Q.** A12C C58A was tested. Which kcat (glucosamine-6-phosphate [1]) did it give?
**A.** 0.000734 ± 2.1e-05 s⁻¹

**Q.** What about the “self-cleavage kobs at 2500 uM GlcN6P” value (glucosamine-6-phosphate [5]) of the same variant?
**A.** 0.000104 ± 1.8e-05 s⁻¹

**Q.** What about the “self-cleavage kobs at 10000 uM GlcN6P” value (glucosamine-6-phosphate [6]) of the same variant?
**A.** 0.000291 ± 4.6e-05 s⁻¹

**Q.** What does the source list for A12C U45C?
**A.** kcat (glucosamine-6-phosphate [1]): 0.00344 ± 0.0011 s⁻¹; KM (glucosamine-6-phosphate [2]): 7.28 ± 3 mM; self-cleavage kobs at 40 uM GlcN6P (glucosamine-6-phosphate [7]): 3e-05 ± 1.2e-05 s⁻¹; self-cleavage kobs at 160 uM GlcN6P (glucosamine-6-phosphate [3]): 5.84e-05 ± 2.1e-05 s⁻¹; self-cleavage kobs at 640 uM GlcN6P (glucosamine-6-phosphate [4]): 0.000289 ± 7.9e-05 s⁻¹; self-cleavage kobs at 2500 uM GlcN6P (glucosamine-6-phosphate [5]): 0.000907 ± 0.00016 s⁻¹; self-cleavage kobs at 10000 uM GlcN6P (glucosamine-6-phosphate [6]): 0.00194 ± 0.00049 s⁻¹

**Q.** For A12G G32C C68G, which kcat (glucosamine-6-phosphate [1]) is on record?
**A.** 1.4e-05 ± 2.2e-06 s⁻¹

**Q.** With A12G G63C as the variant, how does the kcat (glucosamine-6-phosphate [1]) read?
**A.** < 1e-05 s⁻¹

**Q.** And the “self-cleavage kobs at 160 uM GlcN6P” value (glucosamine-6-phosphate [3])?
**A.** < 1e-05 s⁻¹

**Q.** What about the “self-cleavage kobs at 10000 uM GlcN6P” value (glucosamine-6-phosphate [6]) of the same variant?
**A.** < 1e-05 s⁻¹

**Q.** With A12G A52G A53G as the variant, how does the kcat (glucosamine-6-phosphate [1]) read?
**A.** 2.52e-05 ± 7.9e-06 s⁻¹

**Q.** Which results are given for A12C A48C?
**A.** kcat (glucosamine-6-phosphate [1]): 0.000151 ± 3.5e-05 s⁻¹; self-cleavage kobs at 640 uM GlcN6P (glucosamine-6-phosphate [4]): 3.34e-05 ± 1.1e-05 s⁻¹; self-cleavage kobs at 2500 uM GlcN6P (glucosamine-6-phosphate [5]): 4.89e-05 ± 1.2e-05 s⁻¹; self-cleavage kobs at 10000 uM GlcN6P (glucosamine-6-phosphate [6]): 0.000111 ± 1.2e-05 s⁻¹

**Q.** What does the source list for A12G C67G?
**A.** kcat (glucosamine-6-phosphate [1]): 0.000322 ± 4.9e-06 s⁻¹; KM (glucosamine-6-phosphate [2]): 1.85 ± 0.062 mM; self-cleavage kobs at 160 uM GlcN6P (glucosamine-6-phosphate [3]): 2.45e-05 ± 1.1e-05 s⁻¹; self-cleavage kobs at 640 uM GlcN6P (glucosamine-6-phosphate [4]): 8.36e-05 ± 8.2e-06 s⁻¹; self-cleavage kobs at 2500 uM GlcN6P (glucosamine-6-phosphate [5]): 0.000182 ± 1.7e-05 s⁻¹; self-cleavage kobs at 10000 uM GlcN6P (glucosamine-6-phosphate [6]): 0.000273 ± 1.9e-05 s⁻¹

**Q.** What does the source list for C11U G37C U57A?
**A.** kcat (glucosamine-6-phosphate [1]): 1.82e-05 ± 2.9e-06 s⁻¹; self-cleavage kobs at 10000 uM GlcN6P (glucosamine-6-phosphate [6]): < 1e-05 s⁻¹

**Q.** Which kcat (glucosamine-6-phosphate [1]) does the source give for A12U C71G here?
**A.** 0.00158 ± 0.00072 s⁻¹

**Q.** What about the “self-cleavage kobs at 40 uM GlcN6P” value (glucosamine-6-phosphate [7]) of the same variant?
**A.** 0.000203 ± 2.3e-05 s⁻¹

**Q.** What about the “self-cleavage kobs at 160 uM GlcN6P” value (glucosamine-6-phosphate [3]) of the same variant?
**A.** 0.000316 ± 5.2e-05 s⁻¹

**Q.** And the “self-cleavage kobs at 640 uM GlcN6P” value (glucosamine-6-phosphate [4])?
**A.** 0.00125 ± 0.00015 s⁻¹

**Q.** And the “self-cleavage kobs at 2500 uM GlcN6P” value (glucosamine-6-phosphate [5])?
**A.** 0.000947 ± 0.00021 s⁻¹

**Q.** What about the “self-cleavage kobs at 10000 uM GlcN6P” value (glucosamine-6-phosphate [6]) of the same variant?
**A.** 0.00305 ± 0.00048 s⁻¹

**Q.** Which kcat (glucosamine-6-phosphate [1]) does the source give for G13A A64G here?
**A.** 0.0011 ± 0.0002 s⁻¹

**Q.** What about the KM (glucosamine-6-phosphate [2]) of the same variant?
**A.** 6.92 ± 2.2 mM

**Q.** And the “self-cleavage kobs at 640 uM GlcN6P” value (glucosamine-6-phosphate [4])?
**A.** 0.000113 ± 2.2e-05 s⁻¹

**Q.** And the “self-cleavage kobs at 2500 uM GlcN6P” value (glucosamine-6-phosphate [5])?
**A.** 0.000246 ± 5e-05 s⁻¹

**Q.** What about the “self-cleavage kobs at 10000 uM GlcN6P” value (glucosamine-6-phosphate [6]) of the same variant?
**A.** 0.000665 ± 6.7e-05 s⁻¹

**Q.** How did the kcat (glucosamine-6-phosphate [1]) turn out when A12U A39C U56G was run?
**A.** 0.00242 ± 0.00054 s⁻¹

**Q.** What about the KM (glucosamine-6-phosphate [2]) of the same variant?
**A.** 3.43 ± 1 mM

**Q.** And the “self-cleavage kobs at 40 uM GlcN6P” value (glucosamine-6-phosphate [7])?
**A.** 2.75e-05 ± 1e-05 s⁻¹

**Q.** What about the “self-cleavage kobs at 160 uM GlcN6P” value (glucosamine-6-phosphate [3]) of the same variant?
**A.** 0.000109 ± 1.8e-05 s⁻¹

**Q.** What about the “self-cleavage kobs at 640 uM GlcN6P” value (glucosamine-6-phosphate [4]) of the same variant?
**A.** 0.000287 ± 0.00011 s⁻¹

**Q.** What about the “self-cleavage kobs at 2500 uM GlcN6P” value (glucosamine-6-phosphate [5]) of the same variant?
**A.** 0.00138 ± 0.00027 s⁻¹

**Q.** What about the “self-cleavage kobs at 10000 uM GlcN6P” value (glucosamine-6-phosphate [6]) of the same variant?
**A.** 0.00168 ± 0.00031 s⁻¹
